According to patent publication US6106844A, “Immunomodulatory peptides of vespid antigen 5” (The Rockfeller University, priority 1998, dated 2000):

Tests used:
Type in all cases: cell-based
[1] = test system: r-Ag5 specific spleen cells from C3H/He mice; test: In vitro proliferation assay, spleen cells of r-Ag5-immunized C3H/He mice; conditions: spleen cells from mice immunized 5 times with rAg5; blank 3130 cpm
Experimental: (§1) FIG. 13. Stimulation index profile of C3H/He mice spleens after 5 immunizations with r-Ag5. In vitro proliferation assays were performed with peptides at three concentrations: 1×10^-5 M (open bar), 1.25×10^-6 M ("uphill" hatch), and 1.56×10^-7 M ("downhill" hatch). The corresponding concentrations of recombinant Antigen 5 were 1.0×10^-6 M, 1.25×10^-7, and 1.56×10^-8 M. The blank was 3130 cpm.
The peptides of the invention can be tested in a proliferation assay for T cell responses. Generally, lymphocytes from a sensitized host are obtained. The host can be a mouse that has been immunized with a vespid venom antigen 5, or with a crossreactive protein, such as testes specific protein. Using techniques that are well known in the art, T lymphocyte response to the peptide can be measured in vitro. In a specific embodiment, infra, T cell responses are detected by measuring incorporation of ^3 H-thymidine, which increases with DNA synthesis associated with proliferation. Cell proliferation can also be detected using an MTT assay [Mossman, J. Immunol. Methods, 65:55-63,(1983); Niks and Otto, J. Immunol. Methods, 130:140-151 (1990)]. […] Alternatively, mRNA for lymphokines can be detected, e.g., by amplification [see Brenner, et al., Biotechniques, 7:1096 (1989)] or in situ hybridization [see, e.g., Kasaian and Biron, J. Immunol., 142:1287 (1989)]. […]

[2] = test system: r-Ag5 specific spleen cells from ASW/Sn mice; test: In vitro proliferation assay, spleen cells of r-Ag5-immunized ASW/Sn mice; conditions: spleen cells from mice immunized 5 times with rAg5; blank 5640 cpm
Experimental: as §1, with “11.” for “13.”, “ASW/sn” for “C3H/He”, “5640” for “3130”
(§2) The peptides of the invention can be tested in a proliferation assay for T cell responses. Generally, lymphocytes from a sensitized host are obtained. The host can be a mouse that has been immunized with a vespid venom antigen 5, or with a crossreactive protein, such as testes specific protein. Using techniques that are well known in the art, T lymphocyte response to the peptide can be measured in vitro. In a specific embodiment, infra, T cell responses are detected by measuring incorporation of ^3 H-thymidine, which increases with DNA synthesis associated with proliferation. Cell proliferation can also be detected using an MTT assay [Mossman, J. Immunol. Methods, 65:55-63,(1983); Niks and Otto, J. Immunol. Methods, 130:140-151 (1990)]. Alternatively, lymphokine production assays can be practiced according to the present invention. In one embodiment, lymphokine production can be assayed using immunological or co-stimulation assays [see, e.g., Fehlner et al., J. Immunol., 146:799 (1991)] or using the ELISPOT technique [Czerkinsky, et al., J. Immunol. Methods, 110:29 (1988)]. Alternatively, mRNA for lymphokines can be detected, e.g., by amplification [see Brenner, et al., Biotechniques, 7:1096 (1989)] or in situ hybridization [see, e.g., Kasaian and Biron, J. Immunol., 142:1287 (1989)]. Of particular interest are those individuals whose T cells produce lymphokines associated with IgE isotype switch events, e.g., IL-4 and IL-5 [Purkeson and Isakson, J. Exp. Med., 175:973-982 (1992)]. Also of interest are the peptide fragments of the vespid venom antigen 5 that contain epitopes recognized by T cells involved in IgE switch events. […]

[3] = test system: Ag5 specific spleen cells from BALB/c mice; test: In vitro proliferation assay, spleen cells of Ag5-immunized BALB/c mice; conditions: spleen cells from mice immunized with rAg5; blank 3970 cpm
Experimental: FIG. 4. Stimulation index profile of BALB/c mice spleens after 4 immunizations with natural (n)-Ag5. In vitro proliferation assays were performed with peptides at three concentrations: 1×10^-5 M (open bar), 1.25×10^-6 M ("uphill" hatch), and 1.56×10^-7 M ("downhill" hatch). The corresponding concentrations of recombinant antigen 5 control were 1.0×10^-6 M, 1.25×10^-7, and 1.56×10^-8 M. The blank was 2200 cpm.
as §1, with “FIG. 5.” for “FIG. 13.”, “of BALB/c” for “of C3H/He”, “after 4” for “after 5”, “with recombinant (r)-Ag5.” for “with r-Ag5.”, “was 4700” for “was 3130”
FIG. 6. […] In vitro proliferation assays were performed with peptides at three concentrations: 1×10^-5 M (open bar), 1.25×10^-6 M ("uphill" hatch), and 1.56×10^-7 M ("downhill" hatch). The corresponding concentrations of recombinant Antigen 5 were 1.0×10^-6 M, 1.25×10^-7, and 1.56×10^-8 M. […]
as §2

B1: r-Ag5: recombinant white faced hornet (Dolichovespula maculata) antigen 5 form 2, Dol m 5.02 (protein)
chain: NNYCKIKCSRGIHTLCKFGTSMKPNCGSKLVKVHGVSNDEKNEIVNRHNQFRQKVAKGLETRGNPGPQPPAKNMNVLVWNDELAKIAQTWANQCSFGHDQCRNTEKYQVGQNVAIASTTGNSYATMSKLIEMWENEVKDFNPKKGTMGDNNFSKVGHYTQMVWGKTKEIGCGSVKYIENNWHTHYLVCNYGPAGNYMDQPIYERK
Stimulation Index C3H/He [1]: 12.3
Stimulation Index ASW/Sn [2]: 15.4
Stimulation Index BALB/c [3]: 20.9
